According to US20160228506A1, “Compositions and Formulations for Prevention and Reduction of Tumorigenesis, Cancer Cell Proliferation and Invasion, and Methods of Production and Use Thereof in Cancer Treatment” (PRONUTRIA, INC., priority 2013, published 2016):

B1: SEQID-00619: protein of the 168 nutritive polypeptide library (protein, listed as Linum usitatissimum)
chain: MAPKAAEKKPAEKKPAEEKKAEKAPAEKKPRAEKKLPKEGGAAAADKKKKRNKKNVETYKIYIFKVLKQVHPDIGISSKAMGIMNSFINDIFEKLAAESSRLARYNKKPTITSREIQTAVRLVLPGELAKHAVSEGTKAVTKFTSS
B2: SEQID-00633: protein of the 168 nutritive polypeptide library (protein, listed as Saccharomyces cerevisiae)
chain: MSDAGRKGFGEKASEALKPDSQKSYAEQGKEYITDKADKVAGKVQPEDNKGVFQGVHDSAEKGKDNAEGQGESLADQARDYMGAAKSKLNDAVEYVSGRVHGEEDPTKK
modifications: source: /note="strain ATCC 204508 / S288c"
notes: protein of the 168 nutritive polypeptide library
B3: SEQID-00612: protein of the 168 nutritive polypeptide library (protein, listed as Oryza sativa)
chain: MICLRAAFPLTSSPLRRLALKPSSSRAAAAAMSSAIAAPVEHIVLIKVRPEAASSGAAAAMVSSLQALSTAVPGLSYIHVGPVLRLRSPAAEALGPTHVLHSRYATKPDLAAYAAHPAHVAAVQGHVLPNALDSTAIDWVNAALVPSPVNPGSAVRLSLAKLKEGVEAHQLAEKLAAATAAAGEAKGAKVSFGENFSPARAKGYQFGMVAVFDSVEGLDAVDGDGKVEAAKAIVRPLLDDVLELEFVVGPAAAEAPAPANL
modifications: source: /note="subsp. japonica"
notes: as for B2
B4: SEQID-00607: protein of the 168 nutritive polypeptide library (protein)
chain: MALQDDWQQSHLERRQVLAESQKQIWATIGLWQRERYSQAITQKQDRQAFVSQLKQENQAFLADAHNNHRQQAEQLAEDLKEFVRSLQKETATFLEESAQSRAEKAEELAQELRDFRAELRDTVAQWQQQWQQQDQERAAGRRKLAQQVQGDLQEFNIIRTIMAEKLLQQTQEAKAERLAGIQSMFEDMGKFRMQLQEYRREREKSVWGGERVKSTPATPQKAKASQTLVPQTKPKAVKSAPSTTTAAQSTTPTAVVVAEPTKPAVPPNQPKPTTVVPHPPNPG
modifications: Arthrospira platensis C1
notes: as for B2
B5: SEQID-00613: protein of the 168 nutritive polypeptide library (protein)
chain: MGLFDRIGRVVRANLNDLVNKAEDPEKILEQAVIEMQEDLIQLRQAVAQTIAQQKRSQQQYNQAQSQANQWQSRAQLALQKGDENLAREALQRKKGYLETANTLEISLRQQTEQVETLKRNLVSLESKISEAKTKKNMLKARAQAAKANEQLNNVLGGINTSSATSVFERMEEKVMIQEAKSQAAAELMGSGLEEQFRALEEGSDVDDELAAMKAQLAGAPANQPQLSPSAPTDSSTSNPEIDNELEELRRELNK
modifications: Arthrospira platensis C1
notes: as for B2
B6: SEQID-00617: protein of the 168 nutritive polypeptide library (protein)
chain: MNKEQLVQETSIKAGVTKKQADAIISAICECIMDAVADGEKVTLVGFGSFEARHRKAREGRNPSTGQPMTIPATTVPAFSAGKAFKERVANESNENVA
modifications: Arthrospira platensis NIES-39
notes: as for B2
B7: SEQID-00623: protein of the 168 nutritive polypeptide library (protein, listed as Solanum lycopersicum)
chain: MKPAEKKPAEKTPVAEKAPAEKKPKAGKKLPKDAAAGDKKKKRSKKAVETYKIYIFKVLKQVHPDIGISSKAMGIMNSFINDIFEKLAQEASRLARYNKKPTITSREIQTAVRLVLPGELAKHAVSEGTKAVTKFTSS
B8: SEQID-00626: protein of the 168 nutritive polypeptide library (protein, listed as Lactobacillus acidophilus)
chain: MVMTDPIADYLTRIRNANMAKHDSVEIPASNIKKSISEILKREGFIRDYEVADDNKQGVIKVFLKYGPNGERVISGLKRISKPGLRNYVSAEDLPKVLNGLGIAIVSTSAGVITDKEARQKNVGGEVIAYIW
modifications: source: /note="strain 30SC"
notes: as for B2
B9: SEQID-00628: protein of the 168 nutritive polypeptide library (protein, listed as Saccharomyces cerevisiae)
chain: MSDFQKEKVEEQEQQQQQIIKIRITLTSTKVKQLENVSSNIVKNAEQHNLVKKGPVRLPTKVLKISTRKTPNGEGSKTWETYEMRIHKRYIDLEAPVQIVKRITQITIEPGVDVEVVVASN
modifications: source: /note="strain ATCC 204508 / S288c"
notes: as for B2
B10: SEQID-00624: protein of the 168 nutritive polypeptide library (protein)
chain: MSEKTDQILEQLKSLSLLEASELVKQIEEAFGVDASASAGGGMMMMAAPGMAAPGAEAAAEEEKTEFDVILTEFPADKKIAVLKVVRSITGLGLKEAKDLVESAPKAIKEATTKEDAESIKKQLEESGAKVEVK
modifications: Arthrospira platensis NIES-39
notes: as for B2
B11: SEQID-00602: protein of the 168 nutritive polypeptide library (protein, listed as Lactobacillus acidophilus)
chain: MKSYMKKIAAVVAVAGVALSTAACSNGGSNSTVASYKGGKITQQQYYDEMKKSQAGKSTLANMIINRALEQQYGKYVSSKKVDKQYNNYKKQYGSQFSAVLQQNGMTASSFKENLKTNLLSEQALKHIKKISKKQEQQAWKSYQPKVTVQHILVAKKSTAQSIIKQLKDGKSFKSLAKKYSLDTATKNKAGKLPAFDSTDNTLDSSFKTAAFKLKTGEVTSTPVKSQSGYHVIKMISHPAKGKFADHKKAIDDEIYASMAQDQATMKDVISTVLKRADVSIKDSDLKDVLASYVSTTSATK
modifications: source: /note="strain 30SC"
notes: as for B2
B12: SEQID-00620: protein of the 168 nutritive polypeptide library (protein, listed as Saccharomyces cerevisiae)
chain: MSDVEEVVEVQEETVVEQTAEVTIEDALKVVLRTALVHDGLARGLRESTKALTRGEALLVVLVSSVTEANIIKLVEGLANDPENKVPLIKVADAKQLGEWAGLGKIDREGNARKVVGASVVVVKNWGAETDELSMIMEHFSQQ
modifications: source: /note="strain ATCC 204508 / S288c"
notes: as for B2
B13: SEQID-00632: protein of the 168 nutritive polypeptide library (protein, listed as Saccharomyces cerevisiae)
chain: MSTVTKYFYKGENTDLIVFAASEELVDEYLKNPSIGKLSEVVELFEVFTPQDGRGAEGELGAASKAQVENEFGKGKKIEEVIDLILRNGKPNSTTSSLKTKGGNAGTKAYN
modifications: source: /note="strain ATCC 204508 / S288c"
notes: as for B2
B14: SEQID-00609: protein of the 168 nutritive polypeptide library (protein, listed as Saccharomyces cerevisiae)
chain: MSNPFDLLGNDVEDADVVVLPPKEIVKSNTSSKKADVPPPSADPSKARKNRPRPSGNEGAIRDKTAGRRNNRSKDVTDSATTKKSNTRRATDRHSRTGKTDTKKKVNQGWGDDKKELSAEKEAQADAAAEIAEDAAEAEDAGKPKTAQLSLQDYLNQQANNQFNKVPEAKKVELDAERIETAEKEAYVPATKVKNVKSKQLKTKEYLEFDATFVESNTRKNFGDRNNNSRNNFNNRRGGRGARKGNNTANATNSANTVQKNRNIDVSNLPSLA
modifications: source: /note="strain ATCC 204508 / S288c"
notes: as for B2
B15: SEQID-00618: protein of the 168 nutritive polypeptide library (protein)
chain: MDAGGKIKKGAGGRKGGGPKKKPVSRSVKAGLQFPVGRIGRYLKKGRYAQRVGTGAPVYLAAVLEYLAAEVLELAGNAARDNKKNRIIPRHVLLAVRNDEELGKLLAGVTIAHGGVLPNINPVLLPKKTERASKEPKSPSKATKSPKKA
modifications: Glycine max
notes: as for B2
B16: SEQID-00625: protein of the 168 nutritive polypeptide library (protein)
chain: MPFKRYVEIGRVAQINYGKEYGRLVVIVDVIDQNRALVDAPDMVRSQVNFKRLSLTDIKIDIKRVPKKKDLVKAMEDADVKTKWEKSSWGRKLIVRKRRASLNDFDRFKIMLAKIKKAAVVRQELAKLRKSA
modifications: Glycine max
notes: as for B2

experiment: SGF digest of 168 nutritive polypeptide library, intact protein by LC-MS/MS; format: in vitro ADME; conditions: 168 nutritive polypeptide library SGF digest, LC-MS/MS spectral counts
Procedure: The in vitro intact half-life of multiple polypeptides in a complex mixture was determined using the simulated gastric in vitro digestion described above. Briefly, the 168 nutritive polypeptide library was generated as described herein by cloning, transforming, and expressing a gene library encoding 168 proteins as a single mixture. The recombinantly expressed proteins were purified from host cell proteins by IMAC purification as described herein.
The 168 Protein Library was treated with SGF as described above and the t=0 and t=10 min samples were analyzed for intact protein by LC-MS/MS. To begin, 10 μg of sample was loaded onto a 10% SDS-PAGE gel (Invitrogen) and run approximately 5 cm into the gel. The gel was excised into ten fractions from 100 kD to the dye front and the gel slices were processed by washing with 25 mM ammonium bicarbonate, followed by acetonitrile. Gel fractions were then reduced with 10 mM dithiothreitol at 60° C., followed by alkylation with 50 mM iodoacetamide at room temperature. Finally, the samples were digested with trypsin (Promega) at 37° C. for 4 h and the digestions were quenched with the addition of formic acid. The samples were then analyzed by nano LC/MS/MS using an EasynLC 1000 HPLC system interfaced to a ThermoFisher Q Exactive. Peptides were loaded on a trapping column and eluted over a 75 μm analytical column at 350 nL/min; both columns were packed with PepMap C18 3 μm resin (ThemoFisher). A 1 hour gradient was employed. The mass spectrometer was operated in data-dependent mode, with MS and MS/MS performed in the Orbitrap at 70,000 FWHM resolution and 17,500 FWHM resolution, respectively. The fifteen most abundant ions were selected for MS/MS. Data were searched against an appropriate database using Mascot to identify peptides. Mascot DAT files were parsed into the Scaffold software for validation, filtering and to create a nonredundant list per sample. Data were filtered at 1% protein and peptide false discovery rate (FDR) and requiring at least two unique peptides per protein. A full list of detected proteins and their spectral counts (SpC) was generated and reported as a function of each collected gel fraction. SpC are a count of the number of spectra identified for a given protein and are used as a measure of relative protein abundance (Liu, H. et al., Analytical Chemistry 2004, 76: 4193-4201). To calculate the percentage of intact protein remaining at the 10 min time point of the SGF digest the number of SpC representative of intact peptide in the t=10 min sample were divided by the number of SpC representative of intact peptide in the t=0 min sample. The number of SpC representative of intact peptide was defined as the sum of the SpC in the fraction with the highest number of SpC assigned to that protein in the t=0 min sample and the two flanking fractions.

Compared with B1, B2 is higher in “% Intact Protein at 10 min” value: 68.5% for the first, 92.1% for the second.

B3 and B4 are the same in “% Intact Protein at 10 min” value: 0% for the first, 0% for the second.

First: B5
Second: B6
The “% Intact Protein at 10 min” value of the first is lower: 0% for the first, 43.9% for the second.

First: B7
Second: B8
The “% Intact Protein at 10 min” value of the first is higher: 63.6% for the first, 0% for the second.

B9 and B10 are the same in “% Intact Protein at 10 min” value: 0% for the first, 0% for the second.

B11 and B12 are the same in “% Intact Protein at 10 min” value: 0% for the first, 0% for the second.

First: B13
Second: B14
The “% Intact Protein at 10 min” value of the first is higher: 1.2% for the first, 0% for the second.

B15 and B16 are the same in “% Intact Protein at 10 min” value: 0% for the first, 0% for the second.
